These results are taken from the supplement of paper PMC5998384.

For series [1], the system named is HeLa Kyoto. In words: solubility in G1/S (NP-40 vs SDS abundance) (log2 ratio); higher = more soluble. Conditions: cell cycle stage: G1/S.
The subject of series [2] is HeLa Kyoto. Briefly: melting temperature (median over replicates), in situ; higher = more thermally stable.
Series [3] relates to HeLa Kyoto. In words: solubility change mitosis vs G1/S (difference of NP-40 vs SDS log2 ratios) (log2 ratio difference); higher = more soluble in mitosis.
Series [4] relates to HeLa Kyoto. In words: thermal stability score vs G1/S (z-score of summed log2 fold changes over temperatures); higher = more thermally stable than in G1/S.
Setting [5] is: cell cycle stage: early G1 (4.5 h after nocodazole release).
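Wherever melting temperature (median over replicates), in situ is given: HeLa Kyoto cells synchronized by double thymidine or nocodazole block, proteins quantified by TMT10plex mass spectrometry, three independent biological replicates.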
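Wherever solubility change mitosis vs G1/S (difference of NP-40 vs SDS log2 ratios) is given: synchronized HeLa Kyoto cells (double thymidine block for G1/S, nocodazole release for mitosis), protein amounts in NP-40 versus SDS lysates quantified by mass spectrometry, three biological replicates.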
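Wherever solubility in G1/S (NP-40 vs SDS abundance) is given: HeLa Kyoto cells arrested at G1/S by double thymidine block, proteins quantified by TMT10plex mass spectrometry in mild NP-40 versus SDS extracts, three biological replicates.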
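Wherever thermal stability score vs G1/S (z-score of summed log2 fold changes over temperatures) is given: synchronized HeLa Kyoto cells, proteins quantified by TMT10plex mass spectrometry, three biological replicates, mitosis taken 0.5 h after nocodazole release, G1/S directly after double thymidine block.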

Turning to “MAAGFGRCCRVLRSISRFHWRSQHTKANRQREPGLGFSFEFTEQQKEFQATARKFAREEIIPVAAEYDKTGEYPVPLIRRAWELGLMNTHIPENCGGLGLGTFDACLISEELAYGCTGVQTAIEGNSLGQMPIIIAGNDQQKKKYLGRMTEEPLMCAYCVTEPGAGSDVAGIKTKAEKKGDEYIINGQKMWITNGGKANWYFLLARSDPDPKAPANKAFTGFIVEADTPGIQIGRKELNMGQRCSDTRGIVFEDVKVPKENVLIGDGAGFKVAMGAFDKTRPVVAAGAVGLAQRALDEATKYALERKTFGKLLVEHQAISFMLAEMAMKVELARMSYQRAAWEVDSGRRNTYYASIAKAFAGDIANQLATDAVQILGGNGFNTEYPVEKLMRDAKIYQIYEGTSQIQRLIVAREHIDKYKN [ACADM]”, the “solubility in G1/S (log2)” value in the series on HeLa Kyoto [1] amounted to 0.248. The melting temperature in the series on HeLa Kyoto [2] (cell cycle stage: G1/S) and in the series on HeLa Kyoto [2] (cell cycle stage: mitosis) was 54.7 °C each time. In addition, in the series with HeLa Kyoto [3], the “solubility change mitosis (log2)” value is -0.0323. Moreover, the thermal stability score in the series on HeLa Kyoto [4] (setting [5]) was -1.04; in the series with HeLa Kyoto [4] (cell cycle stage: mitosis) it was -2.26.
In the case of “MAAGGGGGSSKASSSSASSAGALESSLDRKFQSVTNTMESIQGLSSWCIENKKHHSTIVYHWMKWLRRSAYPHRLNLFYLANDVIQNCKRKNAIIFRESFADVLPEAAALVKDPSVSKSVERIFKIWEDRNVYPEEMIVALREALSTTFKTQKQLKENLNKQPNKQWKKSQTSTNPKAALKSKIVAEFRSQALIEELLLYKRSEDQIELKEKQLSTMRVDVCSTETLKCLKDKTGGKKFSKEFEEASSKLEEFVNGLDKQVKNGPSLTEALENAGIFYEAQYKEVKVVANAYKTFANRVNNLKKKLDQLKSTLPDPEESPVPSPSMDAPSPTGSESPFQGMGGEESQSPTMESEKSATPEPVTDNRDVEDMELSDVEDDGSKIIVEDRKEKPAEKSAVSTSVPTKPTENISKASSCTPVPVTMTATPPLPKPVNTSLSPSPALALPNLANVDLAKISSILSSLTSVMKNTGVSPASRPSPGTPTSPSNLTSGLKTPAPATTTSHNPLANILSKVEITPESILSALSKTQTQSAPALQGLSSLLQSVTGNPVPASEAASQSTSASPANTTVSTIKGRNLPSSAQPFIPKSFNYSPNSSTSEVSSTSASKASIGQSPGLPSTTFKLPSNSLGFTATHNTSPAAPPTEVTICQSSEVSKPKLESESTSPSLEMKIHNFLKGNPGFSGLNLNIPILSSLGSSAPSESHPSDFQRGPTSTSIDNIDGTPVRDERSGTPTQDEMMDKPTSSSVDTMSLLSKIISPGSSTPSSTRSPPPGRDESYPRELSNSVSTYRPFGLGSESPYKQPSDGMERPSSLMDSSQEKFYPDTSFQEDEDYRDFEYSGPPPSAMMNLEKKPAKSILKSSKLSDTTEYQPILSSYSHRAQEFGVKSAFPPSVRALLDSSENCDRLSSSPGLFGAFSVRGNEPGSDRSPSPSKNDSFFTPDSNHNSLSQSTTGHLSLPQKQYPDSPHPVPHRSLFSPQNTLAAPTGHPPTSGVEKVLASTISTTSTIEFKNMLKNASRKPSDDKHFGQAPSKGTPSDGVSLSNLTQPSLTATDQQQQEEHYRIETRVSSSCLDLPDSTEEKGAPIETLGYHSASNRRMSGEPIQTVESIRVPGKGNRGHGREASRVGWFDLSTSGSSFDNGPSSASELASLGGGGSGGLTGFKTAPYKERAPQFQESVGSFRSNSFNSTFEHHLPPSPLEHGTPFQREPVGPSSAPPVPPKDHGGIFSRDAPTHLPSVDLSNPFTKEAALAHAAPPPPPGEHSGIPFPTPPPPPPPGEHSSSGGSGVPFSTPPPPPPPVDHSGVVPFPAPPLAEHGVAGAVAVFPKDHSSLLQGTLAEHFGVLPGPRDHGGPTQRDLNGPGLSRVRESLTLPSHSLEHLGPPHGGGGGGGSNSSSGPPLGPSHRDTISRSGIILRSPRPDFRPREPFLSRDPFHSLKRPRPPFARGPPFFAPKRPFFPPRY [RPRD2]”, the “solubility in G1/S (log2)” value in the series with HeLa Kyoto [1] was -0.0214. Further, the melting temperature came out at 48 °C in the series with HeLa Kyoto [2] (cell cycle stage: G1/S) and 49.2 °C in the series on HeLa Kyoto [2] (cell cycle stage: mitosis). Further, the “solubility change mitosis (log2)” value in the series on HeLa Kyoto [3] worked out at 0.0816. For the same sequence, the thermal stability score was found to be 2.07 with HeLa Kyoto [4] (setting [5]) and 4.95 in the series with HeLa Kyoto [4] (cell cycle stage: mitosis).
On to “MAAGGGGSCDPLAPAGVPCAFSPHSQAYFALASTDGHLRVWETANNRLHQEYVPSAHLSGTCTCLAWAPARLQAKESPQRKKRKSEAVGMSNQTDLLALGTAVGSILLYSTVKGELHSKLISGGHDNRVNCIQWHQDSGCLYSCSDDKHIVEWNVQTCKVKCKWKGDNSSVSSLCISPDGKMLLSAGRTIKLWVLETKEVYRHFTGHATPVSSLMFTTIRPPNESQPFDGITGLYFLSGAVHDRLLNVWQVRSENKEKSAVMSFTVTDEPVYIDLTLSENKEEPVKLAVVCRDGQVHLFEHILNGYCKKPLTSNCTIQIATPGKGKKSTPKPIPILAAGFCSDKMSLLLVYGSWFQPTIERVALNSREPHMCLVRDISNCWAPKVETAITKVRTPVMNSEAKVLVPGIPGHHAAIKPAPPQTEQVESKRKSGGNEVSIEERLGAMDIDTHKKGKEDLQTNSFPVLLTQGLESNDFEMLNKVLQTRNVNLIKKTVLRMPLHTIIPLLQELTKRLQGHPNSAVLMVQWLKCVLTVHASYLSTLPDLVPQLGTLYQLMESRVKTFQKLSHLHGKLILLITQVTASEKTKGATSPGQKAKLVYEEESSEEESDDEIADKDSEDNWDEDEEESESEKDEDVEEEDEDAEGKDEENGEDRDTASEKELNGDSDLDPENESEEE [WDR43]”, for which the “solubility in G1/S (log2)” value in the series on HeLa Kyoto [1] is -1.29. For the same sequence, the melting temperature in the series with HeLa Kyoto [2] (cell cycle stage: G1/S) was 58.6 °C; in the series on HeLa Kyoto [2] (cell cycle stage: mitosis), 55.7 °C. Moreover, in the series on HeLa Kyoto [3], the “solubility change mitosis (log2)” value was found to be 0.783. Also, the thermal stability score with HeLa Kyoto [4] (setting [5]) was -1.7; in the series with HeLa Kyoto [4] (cell cycle stage: mitosis) it was -6.5.
On to “MAAGIVASRRLRDLLTRRLTGSNYPGLSISLRLTGSSAQEEASGVALGEAPDHSYESLRVTSAQKHVLHVQLNRPNKRNAMNKVFWREMVECFNKISRDADCRAVVISGAGKMFTAGIDLMDMASDILQPKGDDVARISWYLRDIITRYQETFNVIERCPKPVIAAVHGGCIGGGVDLVTACDIRYCAQDAFFQVKEVDVGLAADVGTLQRLPKVIGNQSLVNELAFTARKMMADEALGSGLVSRVFPDKEVMLDAALALAAEISSKSPVAVQSTKVNLLYSRDHSVAESLNYVASWNMSMLQTQDLVKSVQATTENKELKTVTFSKL [ECH1]”, for which the “solubility in G1/S (log2)” value in the series with HeLa Kyoto [1] was found to be 0.165. For the same sequence, the melting temperature with HeLa Kyoto [2] (cell cycle stage: G1/S) turned out to be 53.4 °C; in the series on HeLa Kyoto [2] (cell cycle stage: mitosis), 53.5 °C. Moreover, the “solubility change mitosis (log2)” value in the series with HeLa Kyoto [3] was -0.00393. Also, the thermal stability score in the series with HeLa Kyoto [4] (setting [5]) was -1.52; with HeLa Kyoto [4] (cell cycle stage: mitosis) it was -2.22.
